Results as given in patent publication US12012457 (SYNTHEKINE, dated 2024).
Numbering of substitutions follows the chain as printed.

T1: extracellular domain of mouse IL23R (mIL23R ECD) (mouse, UniProt Q8K4B4 24-374)
T1 construct: also called mIL-23 ECD antigen
T1 sequence: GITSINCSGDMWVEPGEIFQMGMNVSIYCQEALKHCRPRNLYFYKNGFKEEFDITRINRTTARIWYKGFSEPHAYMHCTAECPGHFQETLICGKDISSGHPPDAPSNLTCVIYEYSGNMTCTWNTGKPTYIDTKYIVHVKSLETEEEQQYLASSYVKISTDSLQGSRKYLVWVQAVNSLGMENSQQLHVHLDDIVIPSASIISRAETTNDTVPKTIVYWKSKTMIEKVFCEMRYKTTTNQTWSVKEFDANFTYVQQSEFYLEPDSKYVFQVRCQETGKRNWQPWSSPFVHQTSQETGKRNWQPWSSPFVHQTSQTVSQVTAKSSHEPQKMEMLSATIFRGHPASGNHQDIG

B1: mIL23R VHH29 (VHH)
VHH: QVQLQESGGGLVQPGGSLRLSCAASGFTFSTSAMTWVRQAPGKGLDWVSGIDSGGTTVYADSVKGRFTISKDNAKNTLYLQMNSLKTEDTAVYYCATGLPWGNTWRTRGQGTQVTVSS
B2: mIL23R VHH33 (VHH)
VHH: B1 VHH with A23T, A24T, T31S, R108T
B3: mIL23R VHH35 (VHH)
VHH: B1 VHH with S21A, A23S, T31S, F67A, S70L
B4: mIL23R VHH21 (VHH)
VHH: B1 VHH with A24T, T31S, R108T
B5: mIL23R VHH37 (VHH)
VHH: B1 VHH with A24T, T31S, S32G, R108T
B6: mIL23R VHH32 (VHH)
VHH: B1 VHH with Q13R, T31R, K71R, N73S, T97I
B7: mIL23R VHH14 (VHH)
VHH: B1 VHH with S30R, K71R, N73S, T97M
B8: mIL23R VHH20 (VHH)
VHH: B1 VHH with T31S, F67A, S70L
B9: mIL23R VHH41 (VHH)
VHH: B1 VHH with S21T
B10: mIL23R VHH7 (VHH)
VHH: B1 VHH with T31R, K71R, N73S, T97I
B11: mIL23R VHH39 (VHH)
VHH: B1 VHH with T31R, K71R, N73S, S84G, T97I
B12: mIL23R VHH38 (VHH)
VHH: B1 VHH with T104I
B13: mIL23R VHH18 (VHH)
VHH: QVQLQESGGGLVQPGGSLRLSCAASGFTFRLTAMRWVRQAPGKGLEWVSGIDSRGSTIYADSVKGRFTISKDNAKNTLYLQLNSLKTEDTAMYYCAQGVYGDTYSGSQGTQVTVSS
B14: mIL23R VHH31 (VHH)
VHH: B13 VHH with K71R
B15: mIL23R VHH45 (VHH)
VHH: B13 VHH with T32S, K64E
B16: mIL23R VHH13 (VHH)
VHH: B13 VHH with A24T, T32A
B17: mIL23R VHH44 (VHH)
VHH: B13 VHH with T32S, L45F
B18: mIL23R VHH23 (VHH)
VHH: B13 VHH with T28N, T32Y, L45V, R54G
B19: mIL23R VHH42 (VHH)
VHH: B13 VHH with R30S, L31N, T32Y
B20: mIL23R VHH28 (VHH)
VHH: B13 VHH with K71R, T90A
B21: mIL23R VHH34 (VHH)
VHH: B13 VHH with Y104H
B22: mIL23R VHH46 (VHH)
VHH: B13 VHH with T32S, N73D
B23: mIL23R VHH30 (VHH)
VHH: B13 VHH with Q108L
B24: mIL23R VHH2 (VHH)
VHH: B13 VHH with L11S, P14A, R19T, A23T, S25P, T32A
B25: mIL23R VHH19 (VHH)
VHH: B13 VHH with T32S
B26: mIL23R VHH40 (VHH)
VHH: B13 VHH with T87S
B27: mIL23R VHH17 (VHH)
VHH: B13 VHH with L11S, P14A
B28: mIL23R VHH9 (VHH)
VHH: B13 VHH with A24T, L45V, R54A, L82M
B29: mIL23R VHH12 (VHH)
VHH: QVQLQESGGGSVQAGGSLRLSCAASGYTYSSCTMGWYRQAPGKERELVSMLISDGSTFYADSVKGRFTFSQENAKNTVYLQMNSLKPEDTAMYYCGCATLGSRTVWGQGTQVTVSS
B30: mIL23R VHH25 (VHH)
VHH: B29 VHH with Y94F
B31: mIL23R VHH1 (VHH)
VHH: B29 VHH with N73Y
B32: mIL23R VHH8 (VHH)
VHH: B29 VHH with A23T, G26R, L51V, I52F, V105I
B33: mIL23R VHH11 (VHH)
VHH: B29 VHH with N76S
B34: mIL23R VHH15 (VHH)
VHH: B29 VHH with L51V, I52F, V105I
B35: mIL23R VHH10 (VHH)
VHH: B29 VHH with Y27D, E46D, I52M, S53G, V105I
B36: mIL23R VHH36 (VHH)
VHH: B29 VHH with Y27D, E46D, L51V, I52F, V105I
B37: mIL23R VHH16 (VHH)
VHH: B29 VHH with Y27D, E46D, I52M, S53G, S84N, V105I
B38: mIL23R VHH27 (VHH)
VHH: B29 VHH with F69S
B39: mIL23R VHH26 (VHH)
VHH: QVQLQESGGGSVQAGGSLRLSCAASGYTFCMAWFRQAPGKEREGVARFYTRDGYTYYSDSVKGRFTISQNNAKNTLYLQMNSLKSEDTAMYYCAADLTRCSSNKNDFRYWGQGTQVTVSS
B40: mIL23R VHH24 (VHH)
VHH: B39 VHH with A24V, D59G
B41: mIL23R VHH43 (VHH)
VHH: B39 VHH with N70D
B42: mIL23R VHH5 (VHH)
VHH: B39 VHH with T98A
B43: mIL23R VHH22 (VHH)
VHH: B39 VHH with G53S
B44: mIL23R VHH3 (VHH)
VHH: QVQLQESGGGSVQAGGSLRLSCTASVNTYCEYNMSWYRQAPGKEREFVSGVDSDGSTRYSESVKGRFTISQDNAKNTMYLQMNGLKPEDTAMYYCKTYVCTFCSGNSCYYEYKYYYEGQGTQVTVSS
B45: mIL23R VHH4 (VHH)
VHH: QVQLQESGGGSVQAGGSLRLSCAASGYTYSNNCMGWFRQAPGKDRERIANIYTGGGRTTYADSVKGRFTISQDSAKSTVYLQMNSLKPEDTAMYYCAAGSCGSARSEYSYWGQGTQVTVSS
B46: mIL23R VHH6 (VHH)
VHH: QVQLQESGGGSVQAGGSLRLSCAASGYTSGNYWMGWFRQAPGKEREGVATLWTGGASTFYGDSVKGRFTISRDNFKNTLYLQMNSLKVEDTAMYYCAADPALRLGANILRPAEYKYWGQGTQVTVSS

These binders were tested against T1, extracellular domain of mouse IL23R … (assay: periplasmic extract ELISA (PE-ELISA), 96-well plate, colorimetric).

Binding result, binds:
B1
B2
B3
B4
B5
B6
B7
B8
B9
B10
B11
B12
B13
B14
B15
B16
B17
B18
B19
B20
B21
B22
B23
B24
B25
B26
B27
B28
B29
B30
B31
B32
B33
B34
B35
B36
B37
B38
B39
B40
B41
B42
B43
B44
B45
B46
